Laboratory results as given in patent publication EP2149585A1 (Novartis Vaccines and Diagnostics, Inc., dated 2010).

What was measured:
[1] = target: human CD40 on the cell surface (human, UniProt P25942 20-277); assay: cell-based or functional assay
[2] = target: T1, Recombinant soluble CD40-his (human, UniProt P25942 21-193); assay: Biacore SPR: antibody captured on immobilized protein A, CD40-his flowed at varying concentrations; 1:1 model, global fit
T1 construct: Soluble recombinant CD40 with his tag used in Biacore

[3] = target: T2, CD40 Domain 2 peptide, spot 21 (human); assay: SPOTs membrane of 10mer peptides, antibody at 10 µg/ml
T2 construct: 10mer on a SPOTs membrane
T2 peptide: KYCDPNLGLR

[4] = target: T3, CD40 Domain 2 peptide, spot 19 (human); assay: as above
T3 construct: 10mer on a SPOTs membrane
T3 peptide: QHKYCDPNLG

[5] = target: T4, CD40 Domain 2 peptide, spot 18 (human); assay: as above
T4 construct: 10mer on a SPOTs membrane
T4 peptide: HQHKYCDPNL

[6] = target: T5, CD40 Domain 2 peptide, spot 22 (human); assay: as above
T5 construct: 10mer on a SPOTs membrane
T5 peptide: YCDPNLGLRV

[7] = target: T6, CD40 Domain 2 peptide, spot 20 (human); assay: as above
T6 construct: 10mer on a SPOTs membrane
T6 peptide: HKYCDPNLGL

[8] = target: T7, CD40 extracellular Domain 2 GST fusion protein (human, UniProt P25942 61-104); assay: SDS-PAGE and western blot of GST-domain fusion proteins from insect cell supernatant
T7 construct: Secreted from insect cells with a GP67 secretion signal; not shown: glutathione S-transferase (GST) fusion partner
T7 chain: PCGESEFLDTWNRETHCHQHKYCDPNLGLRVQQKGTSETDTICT

[9] = target: T1, Recombinant soluble CD40-his; assay: Biacore SPR, CD40-his over captured antibody
[10] = target: T2, CD40 Domain 2 peptide, spot 21; assay: SPOTs membrane of 10mer peptides, stripped and reprobed
[11] = target: T5, CD40 Domain 2 peptide, spot 22; assay: as above
[12] = target: T6, CD40 Domain 2 peptide, spot 20; assay: as above
[13] = target: T8, CD40 Domain 2 10mer peptide, spot 20 (HKYCDPNLGL) (human); assay: SPOTs peptide membrane stripped and reprobed with the mAb; spot 20 listed as recognized
T8 peptide: HKYCDPNLGL

[14] = target: T9, CD40 Domain 2 10mer peptide, spot 21 (KYCDPNLGLR) (human); assay: SPOTs peptide membrane stripped and reprobed with the mAb; spot 21 listed as recognized
T9 peptide: KYCDPNLGLR

[15] = target: T10, CD40 Domain 2 10mer peptide, spot 22 (YCDPNLGLRV) (human); assay: SPOTs peptide membrane stripped and reprobed with the mAb; spot 22 listed as recognized
T10 peptide: YCDPNLGLRV

[16] = target: T11, CD40 extracellular Domain 2 GST fusion protein (human, UniProt P25942 61-104); assay: Western blot, GST fusion of Domain 2 from insect cell supernatant
T11 construct: Expressed in insect cells with a GP67 secretion signal; not shown: GST fusion partner
T11 chain: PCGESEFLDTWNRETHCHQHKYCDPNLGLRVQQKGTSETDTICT

[17] = target: T12, CD40 extracellular Domain 4 GST fusion protein (human, UniProt P25942 145-187); assay: Western blot, GST fusion of the domain from insect cell supernatant
T12 construct: Expressed in insect cells with a GP67 secretion signal; only the domain stood in the assay; not shown: GST fusion partner
T12 chain: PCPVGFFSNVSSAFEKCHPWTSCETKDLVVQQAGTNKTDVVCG

[18] = target: T13, CD40 extracellular Domain 1 GST fusion protein (human, UniProt P25942 21-60); assay: as above
T13 construct: Expressed in insect cells with a GP67 secretion signal; only the domain stood in the assay; not shown: GST fusion partner
T13 chain: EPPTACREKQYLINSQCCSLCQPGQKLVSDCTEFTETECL

[19] = target: T14, CD40 extracellular Domain 3 GST fusion protein (human, UniProt P25942 105-144); assay: as above
T14 construct: Expressed in insect cells with a GP67 secretion signal; only the domain stood in the assay; not shown: GST fusion partner
T14 chain: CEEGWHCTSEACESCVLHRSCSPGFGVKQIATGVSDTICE

[20] = target: T10, CD40 Domain 2 10mer peptide, spot 22 …; assay: SPOTs peptide membrane probed with the mAb at 10 µg/ml, anti-human IgG beta-galactosidase secondary; spot 22 listed as positive
[21] = target: T9, CD40 Domain 2 10mer peptide, spot 21 …; assay: SPOTs peptide membrane probed with the mAb at 10 µg/ml, anti-human IgG beta-galactosidase secondary; spot 21 listed as positive
[22] = target: T15, CD40 Domain 2 10mer peptide, spot 19 (QHKYCDPNLG) (human); assay: SPOTs peptide membrane probed with the mAb at 10 µg/ml, anti-human IgG beta-galactosidase secondary; spot 19 listed as positive
T15 peptide: QHKYCDPNLG

[23] = target: T8, CD40 Domain 2 10mer peptide, spot 20 …; assay: SPOTs peptide membrane probed with the mAb at 10 µg/ml, anti-human IgG beta-galactosidase secondary; spot 20 listed as positive
[24] = target: T16, CD40 Domain 2 10mer peptide, spot 18 (HQHKYCDPNL) (human); assay: SPOTs peptide membrane probed with the mAb at 10 µg/ml, anti-human IgG beta-galactosidase secondary; spot 18 listed as positive
T16 peptide: HQHKYCDPNL

Chain of human CD40 on the cell surface (P25942 20-277): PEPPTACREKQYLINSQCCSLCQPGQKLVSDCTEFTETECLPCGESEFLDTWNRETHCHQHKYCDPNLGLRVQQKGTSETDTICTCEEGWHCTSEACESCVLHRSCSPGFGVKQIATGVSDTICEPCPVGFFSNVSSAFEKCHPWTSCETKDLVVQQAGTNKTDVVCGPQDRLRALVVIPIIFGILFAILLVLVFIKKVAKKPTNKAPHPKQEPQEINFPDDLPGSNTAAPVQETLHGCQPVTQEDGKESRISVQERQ

B1: CHIR-12.12 (antibody, human IgG1, kappa)
heavy: not shown
light: DIVMTQSPLSLTVTPGEPASISCRSSQSLLYSNGYNYLDWYLQKPGQSPQVLISLGSNRASGVPDRFSGSGSGTDFTLKISRVEAEDVGVYYCMQARQTPFTFGPGTKVDIRRTVAAPSVFIFPPSDEQLKSGTASVVCLLNNFYPREAKVQWKVDNALQSGNSQESVTEQDSKDSTYSLSSTLTLSKADYEKHKVYACEVTHQGLSSPVTKSFNRGEC
- average IC50 of inhibition of CD40 ligand-induced lymphocyte proliferation, lymphocytes from 6 donors [1]: 47 pM
- Kd [2]: 510 pM
- koff [2]: 0.000124 s⁻¹
- kon [2]: 241000 M⁻¹ s⁻¹
- binding result [3]: binds
- binding result [4]: binds
- binding result [5]: binds
- binding result [6]: binds
- binding result [7]: binds
- binding result [8]: binds
- fold difference in the off rate against CHIR-5.9 [9]: 121 fold
- fold higher affinity against CHIR-5.9 [9]: 24 fold

B2: CHIR-5.9 (antibody, human IgG1, kappa)
heavy: not shown
light: AIVMTQPPLSSPVTLGQPASISCRSSQSLVHSDGNTYLNWLQQRPGQPPRLLIYKFFRRLSGVPDRFSGSGAGTDFTLKISRVEAEDVGVYYCMQVTQFPHTFGQGTRLEIKRTVAAPSVFIFPPSDEQLKSGTASVVCLLNNFYPREAKVQWKVDNALQSGNSQESVTEQDSKDSTYSLSSTLTLSKADYEKHKVYACEVTHQGLSSPVTKSFNRGEC
notes: also called mAb CHIR-5.9
- Kd [2]: 12200 pM
- koff [2]: 0.015 s⁻¹
- kon [2]: 1.24e+06 M⁻¹ s⁻¹
- binding result [8]: binds
- binding result [10]: binds
- binding result [11]: binds
- binding result [12]: binds

B3: anti-CD40 monoclonal antibody CHIR-5.9 (antibody, human IgG1, kappa)
light: AIVMTQPPLSSPVTLGQPASISCRSSQSLVHSDGNTYLNWLQQRPGQPPRLLIYKFFRRLSGVPDRFSGSGAGTDFTLKISRVEAEDVGVYYCMQVTQFPHTFGQGTRLEIKRTVAAPSVFIFPPSDEQLKSGTASVVCLLNNFYPREAKVQWKVDNALQSGNSQESVTEQDSKDSTYSLSSTLTLSKADYEKHKVYACEVTHQGLSSPVTKSFNRGEC
heavy: not shown
notes: Fully human IgG1 kappa; also called mAb CHIR-5.9; CHIP-5.9
- binding result [13]: binds
- binding result [14]: binds
- binding result [15]: binds

B4: monoclonal antibody CHIR-12.12 (antibody, human IgG1, kappa)
light: DIVMTQSPLSLTVTPGEPASISCRSSQSLLYSNGYNYLDWYLQKPGQSPQVLISLGSNRASGVPDRFSGSGSGTDFTLKISRVEAEDVGVYYCMQARQTPFTFGPGTKVDIRRTVAAPSVFIFPPSDEQLKSGTASVVCLLNNFYPREAKVQWKVDNALQSGNSQESVTEQDSKDSTYSLSSTLTLSKADYEKHKVYACEVTHQGLSSPVTKSFNRGEC
heavy: not shown
notes: Fully human IgG1 kappa anti-human CD40 mAb; Leader residues (1-20 light, 1-19 heavy) left out as stated
- binding result [16]: binds
- binding result [17]: no binding
- binding result [18]: no binding
- binding result [19]: no binding

B5: monoclonal antibody CHIR-5.9 (antibody, human IgG1, kappa)
light: AIVMTQPPLSSPVTLGQPASISCRSSQSLVHSDGNTYLNWLQQRPGQPPRLLIYKFFRRLSGVPDRFSGSGAGTDFTLKISRVEAEDVGVYYCMQVTQFPHTFGQGTRLEIKRTVAAPSVFIFPPSDEQLKSGTASVVCLLNNFYPREAKVQWKVDNALQSGNSQESVTEQDSKDSTYSLSSTLTLSKADYEKHKVYACEVTHQGLSSPVTKSFNRGEC
heavy: not shown
notes: Fully human IgG1 kappa anti-human CD40 mAb; Leader residues (1-20 light, 1-19 heavy) left out as stated; also called mAb CHIR-5.9
- binding result [16]: binds
- binding result [17]: no binding
- binding result [18]: no binding
- binding result [19]: no binding

B6: anti-CD40 monoclonal antibody CHIR-12.12 (antibody, human IgG1, kappa)
light: DIVMTQSPLSLTVTPGEPASISCRSSQSLLYSNGYNYLDWYLQKPGQSPQVLISLGSNRASGVPDRFSGSGSGTDFTLKISRVEAEDVGVYYCMQARQTPFTFGPGTKVDIRRTVAAPSVFIFPPSDEQLKSGTASVVCLLNNFYPREAKVQWKVDNALQSGNSQESVTEQDSKDSTYSLSSTLTLSKADYEKHKVYACEVTHQGLSSPVTKSFNRGEC
heavy: not shown
notes: Fully human IgG1 kappa
- binding result [20]: binds
- binding result [21]: binds
- binding result [22]: binds
- binding result [23]: binds
- binding result [24]: binds
